From publication PMC6249382, “The Maize Sulfite Reductase Is Involved in Cold and Oxidative Stress Responses” (Frontiers in Plant Science, 2018) come the findings set out here.

Substrate in this data set: O=S(O)O
The data set can be described thus: steady-state kinetics, Lineweaver-Burk plot. The format is biochemical, Zea mays. The conditions noted are these: 400 μM NADPH as electron donor (printed "electron acceptor"); sulfite 2.5-400 μM; 1.0 μg enzyme.

B1: ZmSiR (Zea mays) (protein)
chain: MSGAIGGAEVHGFRGAAAQLPRSRVLGRPIRVAPPAAARPGGASAGSIRAVSAPAKKDASEVKRSKVEIIKEKSNFLRYPLNEELVSEAPNINESAVQLIKFHGSYQQTDRDVRGQKNYSFMLRTKNPCGKVPNQLYLAMDTLADEFGIGTLRLTTRQTFQLHGVLKKNLKTVLSTVIKNMGSTLGACGDLNRNVLAPAAPYVKKDILFAQQTAENIAALLTPQSGAYYDLWVDGEKIMSAEEPPEVTKARNDNSHGTNFPDSPEPIYGTQYLPRKFKVAVTAAGDNSVDILTNDIGVVVVSDDAGEPIGFNIYVGGGMGRTHRVETTFPRLADPLGYVPKEDILYAIKAIVVTQRENGRRDDRKYSRMKYMIDRWGIDRFRAEVEKYYGKKFESFRPLPEWQFNSYLGWQEQGDGKLFYGVHVDNGRVGGQAKKTLREIIEKYNLDVSITPNQNLILCGIDQAWREPITTALAQAGLLEPKDVDPLNLTAMACPALPLCPLAQTEAERGILPILKRIRAVFNKVGIKDSESVVVRITGCPNGCARPYMAELGFVGDGPKSYQIWLGGTPNQSTLAESFMDKVKLDDIEKVLEPLFTYWNGTRQEGESFGSFTNRTGFDKLKEVVNKWAESPSAA
In general, Km refers to the substrate concentration at which the rate is half of its maximum. In the case of B1, the Michaelis-Menten constant (Km) came to 5.32 ± 0.26 µM.
